Experiment [1] deals with cross-linked His-CAhex, 6-His-CA(A14C/E45C/W184A/M185A) (HIV-1). The experiment can be described thus: SPR; Reichert 4-SPR; cross-linked His-CAhex immobilised on an NTA chip via the C-terminal His-tag; peptides 3.9 µM to 2 mM; 0.01 M HEPES pH 7.4, 0.15 M NaCl, 0.05% Surfactant P20; Scrubber 2.0, simple kinetic model. (In general: SPR reads the build-up and loss of mass on a sensor chip optically.)

Experiment [2] has as its target Cross-linked His-CAhex: disulfide-stabilized hexamer of 6-His-CA(A14C/E45C/W184A/M185A) (HIV-1). As to the kind of experiment: SPR; Reichert 4-SPR; cross-linked His-CAhex immobilised on an NTA chip via the C-terminal His-tag; peptides 3.9 μM to 2 mM; 0.01 M HEPES pH 7.4, 0.15 M NaCl, 0.05% v/v Surfactant P20; simple kinetic model.

These results are taken from publication PMC9537594.

Usually Kd stands for a measure of binding affinity in units of concentration.

For the molecule NSPSGVFTFGANSST [NUP1531409-1423 peptide], the equilibrium dissociation constant (Kd) in experiment [1] was 131 µM.
The same measure, in the same setting: next, GPLLPGQSFGGPSVS [SEC24C228-242 peptide]: 1070 µM.
The molecule GPLLPGQSFGGPSVS [SEC24C_(228-242) 15-mer FG peptide] registered an equilibrium dissociation constant (Kd) in experiment [2] of 1070 µM.
